Molecular target: T1, human IL-17RE (Thr155-Ser451), soluble form (human, UniProt Q8NFR9 155-451)
T1 sequence (looked up): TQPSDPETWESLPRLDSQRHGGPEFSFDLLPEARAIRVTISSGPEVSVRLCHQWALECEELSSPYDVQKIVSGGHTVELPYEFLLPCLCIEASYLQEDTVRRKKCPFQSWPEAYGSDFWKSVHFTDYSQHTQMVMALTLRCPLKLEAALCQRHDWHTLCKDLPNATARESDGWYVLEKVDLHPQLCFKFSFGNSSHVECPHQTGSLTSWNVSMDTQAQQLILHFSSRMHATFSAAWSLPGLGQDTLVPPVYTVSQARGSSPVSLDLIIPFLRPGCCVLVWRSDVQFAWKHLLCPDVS
Experiment: SEC

- binding result: binds
B1: human IL-17c (residues His19-Val197), soluble form (ligand, UniProt Q9P0M4 19-197, looked up)
chain: HHDPSLRGHPHSHGTPHCYSAEELPLGQAPPHLLARGAKWGQALPVALVSSLEAASHRGRHERPSATTQCPVLRPEEVLEADTHQRSISPWRYRVDTDEDRYPQKLAFAECLCRGCIDARTGRETAALNSVRLLQSLLVLRRRPCSRDGSGLPTPGAFAFHTEFIHVPVGCTCVLPRSV

— paper PMC5551564 (The Journal of Experimental Medicine, 2017)
